Data as given in paper PMC6769641.

How the values were obtained:
[1] = molecular target: catalase from sweet pepper (Capsicum annuum L.) fruits (Capsicum annuum (endogenous in sweet pepper fruits)) (UniProt Q9M5L6); experiment: SEC; FPLC gel filtration on Superose 12 in 50 mM Tris-HCl, pH 8.0; ammonium sulfate fraction (20-80%) of green pepper fruit extract; catalase activity followed in fractions; column calibrated with rubisco, ferritin, aldolase, phosphorylase b and myoglobin
[2] = molecular target: catalase from sweet pepper (Capsicum annuum L.) fruits (Capsicum annuum (endogenous in sweet pepper fruits)) (UniProt Q9M5L6); experiment: native gel or EMSA; Hedrick and Smith method: non-denaturing PAGE at 5-7% acrylamide, catalase activity staining in gels; BSA monomer, dimer, trimer and tetramer as molecular weight standards

- stoichiometry N [1]: 2
- stoichiometry N [2]: 2
Substance: catalase from sweet pepper (Capsicum annuum L.) fruits (from UniProt Q9M5L6 1-492) (enzyme)
